The assay has as its target Human parvovirus B19 major capsid protein VP2 (human parvovirus B19).

“Human parvovirus B19 minor capsid protein VP1 (from UniProt Q9PZT0 1-781) (natural protein)” yielded a proportion of VP1 in the VP1/VP2 VLP of 5.11% and a proportion of VP1 in the VP1h/VP2 VLP of 25.4%.
